{"source": "paper PMC7386476", "binders": {"B1": {"name": "RNA scaffold (template-product, cryo-EM primer and template, Figure 1A) (dsRNA)", "RNA 1": "CUAUCCCCAUGUGAUUUUAAUAGCUUCUUAGGAGAAUGACGUAGCAUGCUACGCG", "RNA 2": "CGCGUAGCAUGCUACGUCAUUCUCCUAAGAAGCUA"}}, "key": {"[1]": {"molecular_target": "nsp12 (RNA-dependent RNA polymerase);nsp7;nsp8;nsp13 helicase (SARS-CoV-2;SARS-CoV-2;SARS-CoV-2;SARS-Co …, UniProt P0DTD1;P0DTD1;P0DTD1;P0DTD1 4393-5324;3860-3942;3943-4140;5325-5925, |||)", "assay": "EMSA"}, "[2]": {"molecular_target": "nsp12 (RNA-dependent RNA polymerase);nsp7;nsp8 (SARS-CoV-2;SARS-CoV-2;SARS-CoV-2, UniProt P0DTD1;P0DTD1;P0DTD1 4393-5324;3860-3942;3943-4140, ||)", "assay": "EMSA"}}}
{"binder": "B1", "values": [{"measurement": "binding result", "setting": "[1]", "result": "binds"}, {"measurement": "binding result", "setting": "[2]", "result": "binds"}]}
